Assay [1] deals with T1, recombinant human RHBDL4 (Homo sapiens, UniProt Q8TEB9).
T1 construct: The entire RHBDL4 and RHBDL4-S144A cDNAs were subcloned into the pcDNA3.1 vector; 6xHis (C, cleaved yes); made in house; host or cells: Freestyle 293-F cells (transient transfection, pcDNA3.1-HisA)
T1 sequence (Q8TEB9 1-315): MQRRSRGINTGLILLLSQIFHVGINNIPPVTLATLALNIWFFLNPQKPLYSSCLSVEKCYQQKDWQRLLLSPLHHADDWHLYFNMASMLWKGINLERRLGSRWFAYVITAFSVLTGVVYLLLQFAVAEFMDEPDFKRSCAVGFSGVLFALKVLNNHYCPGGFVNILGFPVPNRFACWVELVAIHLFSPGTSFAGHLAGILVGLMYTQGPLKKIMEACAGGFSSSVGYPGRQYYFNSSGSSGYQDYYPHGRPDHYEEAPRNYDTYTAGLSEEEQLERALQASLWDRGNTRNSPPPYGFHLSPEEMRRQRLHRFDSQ
The assay can be described thus: FRET-based cleavage assay with fluorescent (IQ / KSp207) substrates. Particulars: for RHBDL4-catalyzed activity towards GlpG/PARL model substrates: in vitro cleavage assay; for kcat: average ± S.E.M. It counts as biochemical. As for the experimental part:
Figure 2 Kinetic characterization of recombinant human RHBDL4.A, schematic representation of the FRET-based cleavage assay using internally quenched (IQ) substrates. B, saturation curves of RHBDL4 using the fluorescent IQ substrates, IQ6, IQ41, and IQ46. C, pH dependence of the RHBDL4 protease activity using substrates IQ6, IQ41, and IQ46. D, salt concentration dependence of the RHBDL4 protease activity using substrates IQ6, IQ41, and IQ46. All the assays were performed in triplicate, and data points are represented by the average ± S.E.M. TEXT PRINTED IN THE PICTURE: (B) IQ 6: KM(μM) 10.73±2; Kcat(hr^-1) 7.33±0.6 | (B) IQ 41: KM(μM) 5.63±2; Kcat(hr^-1) 2.41±0.6 | (B) IQ 46: KM(μM) 7.19±1; Kcat(hr^-1) 3.62±0.8
(§1) The reaction setup in our FRET assay enabled the direct determination of Michaelis–Menten kinetic parameters Km and kcat for the cleavage of IQ6, IQ41, and IQ46 by RHBDL4. Our fluorescence reading data were converted to μM/h using the standard calibration curve for all three IQ substrates, and the correction factor for the inner filter effect was applied. We confirmed that purified RHBDL4 followed Michaelis–Menten kinetics with KmIQ6=10.73±2μΜ , KmIQ41=5.63±2μΜ , and KmIQ46=7.19±1μΜ and kcatIQ6=7.33±0.6h^−1 , kcatIQ41=2.41±0.6h^−1 , and kcatIQ46=3.62±0.08h^−1 (Figs. 2B and S2B).
Our FRET-based assay is a suitable platform for optimizing conditions that enhance RHBDL4 protease activity. To this end, we selected the optimal pH for RHBDL4 protease activity and performed FRET-based assays with IQ6, IQ41, and IQ46 at a pH range of 5 to 10. […] The optimal salt concentration for the RHBDL4 protease activity was also tested in the range of 100 to 300 mM (Fig. 2D). We conclude that with the IQ6, IQ41, and IQ46 substrates, RHBDL4 had satisfactory activity in a salt concentration range of 100 to 300 mM.
Figure 5 In vitro inhibition of RHBDL4 activity with TMED7-derived peptidyl α-ketoamides.A, schematic representation of the peptidyl-α-ketoamide inhibitor, compound 3 and 4. B, representative inhibition curve derived from measuring rates of RHBDL4 proteolysis of the fluorescent substrate IQ6 with increasing concentrations of compound 3. C, same as (B), except inhibition curve was derived from using increasing concentrations of compound 4. […] Reactions were quenched with 1 RLaemmli buffer and loaded on 12% SDS-PAGE gel. Post-transfer membranes were visualized using a fluorescence Cy3 filter and by Western blotting using an α-His antibody. E, saturation curve of RHBDL4 using fluorescent substrate, KSp207. For (B and C), all inhibitors were pre-incubated with RHBDL4 for 1 h and allowed to react with the IQ6 substrate for 2 h. […]
(§2) The enzymatic assay was performed as previously described (Arutyunova et al., 2014, ([26])). […] The FRET-based cleavage assay was conducted in a fluorescence multiwell plate reader (SynergyMx, BioTek). Upon excitation at 320 nm, the emission intensity at 400 nm was recorded for 2 h at minimal intervals under shaking conditions and plotted using the GraphPad PRISM software. The initial velocities were defined as the slopes of the curve of the generated product as a function of time. The plots of the generated product against the corresponding substrate concentration were fitted with the Michaelis–Menten equation. Catalytic parameters were extrapolated using GraphPad PRISM. […] The samples were desalted using C18 tips (Rainin), eluted in 80% acetonitrile, and dried down in a vacuum centrifuge prior to mass spectrometry analysis.
All the calculations for Km, Vmax, and Kcat for RHBDL4 and its mutants were performed using GraphPad PRISM.

In assay [2] the test system is mammalian rhomboid protease PARL. The conditions noted are these: ref [26], [27]; cited from earlier work.
The next assay relates to RHBDL4-AR. The assay can be described thus: FRET-based cleavage of IQ6 by RHBDL4-AR mutant (WR motif). It counts as biochemical, human. The conditions noted are these: IQ6 substrate; n = 3. An excerpt: (§3) All mutants had robust expression on day 3 post-transfection of Freestyle 293-F cells, when cells were harvested for purification. RHBDL4 contains two motifs that are well conserved among the rhomboid superfamily, the WR motif in L1 and the Gx3G motif in TM domain 6 (Fig. S3, A and B) ([8]). Both motifs are required for RHBDL4-mediated ERAD function (Fleig et al. 2012). We predicted that both AR and Ax3G mutants would result in lower RHBDL4 activity. To that end, RHBDL4-AR and RHBDL4-Ax3G were expressed and purified using affinity Ni-NTA column followed by SEC (Fig. 3, B and C). […]
(§4) Figure 3 Dependence of conserved rhomboid motifs on RHBDL4 protease activity.A, RHBDL4 representation highlighting TM1–6 (in green), the VBM- and UIM-binding motifs (in blue), the conserved rhomboid motifs (WR and Gx3G), and the serine-histidine catalytic dyad (in pink). […] D, activity profiles of the WT RHBDL4 and mutant RHBDL4-S144A, RHBDL4-AR, and RHBDL4-Ax3G proteins, as measured by cleavage of the fluorescent substrate IQ6. […]
(§5) The enzymatic assay was performed as previously described (Arutyunova et al., 2014, ([26])). […] The FRET-based cleavage assay was conducted in a fluorescence multiwell plate reader (SynergyMx, BioTek). Upon excitation at 320 nm, the emission intensity at 400 nm was recorded for 2 h at minimal intervals under shaking conditions and plotted using the GraphPad PRISM software. […]

A further assay has as its system RHBDL4-Ax3G. The assay can be described thus: FRET-based cleavage of IQ6 by RHBDL4-Ax3G mutant. Type of assay: biochemical, human. The conditions noted are these: IQ6 substrate; n = 3.
Source text: as §3, §4, §5

A further assay has as its system RHBDL4-S144A. The assay can be described thus: FRET-based cleavage by inactive RHBDL4-S144A. It counts as biochemical, human. Particulars: pH 8, 37 °C.
Source text: as §1
Figure 3 Dependence of conserved rhomboid motifs on RHBDL4 protease activity.A, RHBDL4 representation highlighting TM1–6 (in green), the VBM- and UIM-binding motifs (in blue), the conserved rhomboid motifs (WR and Gx3G), and the serine-histidine catalytic dyad (in pink). The table indicates the RHBDL4 region, the conserved rhomboid motifs, and amino acid mutation. The RHBDL4 proteolytic activity. B, size-exclusion chromatography profile of RHBDL4-AR and RHBDL4-Ax3G, being eluted as a monomeric protein. C, coomassie staining and Western blotting using an α-His antibody of concentrated purified RHBDL4-AR and RHBDL4-Ax3G. D, activity profiles of the WT RHBDL4 and mutant RHBDL4-S144A, RHBDL4-AR, and RHBDL4-Ax3G proteins, as measured by cleavage of the fluorescent substrate IQ6. Assay was performed in triplicate (n = 3), and data points are represented by the average ± S.E.M. Statistically significant differences compared to WT RHBDL4 are indicated (pairwise Dunnett's test followed by Bonferroni's post hoc analysis; ∗p < 0.05, n.s., no significance).
as §5

Assay [3] concerns the target T1, recombinant human RHBDL4. The assay can be described thus: Mass spectrometry identification of cleavage sites in IQ6. It counts as biochemical. The conditions noted are these: 1.5 μM RHBDL4, 10 μM IQ6, 4 h, room temperature, quenched with 8 M GuHCl; MS/MS. The procedure:
as §2
Supplemental Information 4. […] (B) Depiction of IQ6 cleavage sites as determined from tandem mass spectrometry (MS/MS). (C) Peptide sequence of GlpG-derived and PARL-derived fluorescent substrates IQ4 and IQ15, respectively. (D) Activity profiles of the wild-type RHBDL4 and mutant RHBDL4-S144A, as measured by cleavage of the fluorescent substrates IQ4 and IQ15. Assays was performed in triplicate, and data points are represented by the average ± S.E.M.

For assay [4], the system named is bacterial rhomboid protease GlpG. The conditions noted are these: ref [26], [27]; cited from earlier work.

Entries after “also recorded” stand apart in the source; their conditions may differ. The star is where a group is joined. Dnp = O=[N+]([O-])c1ccc(*)c([N+](=O)[O-])c1; Mca = COc1ccc2c(CC(=O)*)cc(=O)oc2c1

One may read the kcat as the number of substrate molecules converted per active site and unit of time at saturation.

As for “mca-AVFLSAVAG(dnp) [IQ15, PGAM-derived PARL model substrate mca-…(dnp)]”, the “RHBDL4-catalyzed activity towards GlpG/PARL model substrates” value on recombinant human RHBDL4 [1] (triplicate) is “did not observe any RHBDL4-catalyzed activity”. Besides, the “cleavage by PARL” value in assay [2] is given as “cleave”.
Turning to “Mca-Arg-Pro-Pro-Gly-Phe-Ser-Ala-Phe-Lys (DNP)-OH (Mca-RPPGFSAFK(Dnp)-OH; SMILES COc1ccc2c(CC(=O)N[C@@H](CCCNC(=N)N)C(=O)N3CCC[C@H]3C(=O)N3CCC[C@H]3C(=O)NCC(=O)N[C@@H](Cc3ccccc3)C(=O)N[C@@H](CO)C(=O)N[C@@H](C)C(=O)N[C@@H](Cc3ccccc3)C(=O)N[C@@H](CCCCNc3ccc([N+](=O)[O-])cc3[N+](=O)[O-])C(=O)O)cc(=O)oc2c1) [IQ6, fluorescent internally quenched substrate mca-…(dnp)]”, the catalytic constant (kcat) in the assay with recombinant human RHBDL4 [1] (37 °C, pH 8.0, triplicate) was 0.00204 ± 0.00017 s⁻¹; with recombinant human RHBDL4 [1] (Michaelis-Menten, 1.5 μM RHBDL4, 37 °C, 2 h, pH 8.0, 150 mM NaCl, 0.1% DDM, triplicate), 0.00204 ± 0.00017 s⁻¹. Also, the “cleavage rate/efficiency relative to other substrates” value with recombinant human RHBDL4 [1] (FRET-based assay) is listed as “exhibited the highest cleavage rate for RHBDL4 proteolysis; also recorded: maximum activity”. Besides, in the assay with recombinant human RHBDL4 [1] (IQ6 versus IQ41), the “faster kinetics in comparison to IQ41” value is “three-fold”. Also, the “faster kinetics in comparison to IQ46” value in the assay with recombinant human RHBDL4 [1] (IQ6 versus IQ46) is given as “two-fold”. Besides, the “catalytic rate (cleavage rate)” value in the assay with recombinant human RHBDL4 [1] (approximate, discussion) is reported as “approximately 7 /h”. Besides, the “pH of highest RHBDL4 protease activity” value in the assay with recombinant human RHBDL4 [1] (pH range 5 to 10, triplicate) worked out at 8. Moreover, in the assay with recombinant human RHBDL4 [1] (salt tested 100 to 300 mM, triplicate), the “salt concentration range with satisfactory activity” value was in the range of 100 to 300 mM. Further, the “decrease in activity compared with WT RHBDL4” value with RHBDL4-AR is approximately 6 fold. Also, the “enzymatic cleavage activity compared with WT RHBDL4” value with RHBDL4-Ax3G is “retained enzymatic cleavage activity at levels comparable to WT RHBDL4”. Also, in the assay with RHBDL4-S144A, the “cleavage by inactive RHBDL4-S144A (increase in fluorescence / activity)” value was “negligible increase in fluorescence; also recorded: negligible activity”. Besides, the N-terminal cleavage products entry in the assay with recombinant human RHBDL4 [3] is “mca-RPPGFSA and mca-RPPGFS”.
As for “mca-RPKPYAvWMK(dnp) [IQ4, GlpG model substrate mca-RPKPYAvWMK(dnp)]”, the “RHBDL4-catalyzed activity towards GlpG/PARL model substrates” value at recombinant human RHBDL4 [1] (triplicate) is “did not observe any RHBDL4-catalyzed activity”. Further, the “cleavage by GlpG” value in assay [4] is given as “cleave”.

Values taken from article PMC11929074, “An in vitro platform for the enzymatic characterization of the rhomboid protease RHBDL4” (The Journal of Biological Chemistry, 2025).
